Target: DDX3X (UniProt O00571 1-662)
Assay: ELISA; ELISA performed as in Zyner et al. (ref 43); buffer, salt, pH and temperature not given in the material
Settings: protein: commercial; tags: FLAG; label: 5' biotin; intramolecular G4

Chain of DDX3X (O00571 whole entry): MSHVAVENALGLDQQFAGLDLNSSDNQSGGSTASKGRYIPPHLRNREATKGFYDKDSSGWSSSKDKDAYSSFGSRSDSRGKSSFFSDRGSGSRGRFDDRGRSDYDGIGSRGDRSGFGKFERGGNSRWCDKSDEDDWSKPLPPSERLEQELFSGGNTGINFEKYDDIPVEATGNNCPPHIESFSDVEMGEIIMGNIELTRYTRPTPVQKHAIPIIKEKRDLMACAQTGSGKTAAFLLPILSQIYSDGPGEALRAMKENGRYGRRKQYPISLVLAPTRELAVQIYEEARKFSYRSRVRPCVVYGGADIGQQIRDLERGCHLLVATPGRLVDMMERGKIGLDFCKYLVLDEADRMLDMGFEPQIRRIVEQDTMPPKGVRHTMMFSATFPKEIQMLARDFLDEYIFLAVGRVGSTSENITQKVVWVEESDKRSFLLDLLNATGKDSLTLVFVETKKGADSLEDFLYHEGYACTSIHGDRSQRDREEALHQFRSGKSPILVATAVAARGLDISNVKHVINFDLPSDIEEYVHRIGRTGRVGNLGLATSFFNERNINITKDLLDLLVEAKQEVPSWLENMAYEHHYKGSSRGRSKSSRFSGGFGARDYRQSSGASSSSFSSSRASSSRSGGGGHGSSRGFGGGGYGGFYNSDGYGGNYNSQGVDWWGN

Binder: UGUGGGAGGGGCGGGUCUGGGUGC (structured_RNA) [NRAS G4]
- Kd: 18 nM

From publication PMC8611094, “RNA G-quadruplex structures control ribosomal protein production”
